{"source": "patent US20180088121A1", "biological_target": "TCRs of APC frameshift neopeptide specific T cell populations", "assay": "flow cytometry, double staining with PE and APC labelled neopeptide-MHC multimers of T cells after 2 weeks of in vitro expansion; first panel from the left", "note": "Where no end group is shown, it is not given here."}
{"binder": "LILYYILPRKV (peptide-MHC, part only; not given: HLA-A2 heavy chain, construct, human, part only, also: bound in HLA-A2 MHC multimer, PE and APC labelled)", "note": "[A2/…]", "values": [{"measurement": "number in the upper right quadrant (MHC-Multimer PE and APC double positive), no percent sign printed", "result": 0.31}]}
